In paper PMC3218020, “Subtype Differences in Pre-Coupling of Muscarinic Acetylcholine Receptors” (PLoS ONE, 2011):

Tests used:
[1] = biological target: T1, M2 muscarinic acetylcholine receptor (Homo sapiens, UniProt P08172); experiment: radioligand binding, CHO membranes; details: labelled compound; antagonist; […] °C, pH […]
T1 construct: gene CHRM2; full-length receptor stably expressed in CHO cells, crude membranes
T1 sequence (P08172 1-466): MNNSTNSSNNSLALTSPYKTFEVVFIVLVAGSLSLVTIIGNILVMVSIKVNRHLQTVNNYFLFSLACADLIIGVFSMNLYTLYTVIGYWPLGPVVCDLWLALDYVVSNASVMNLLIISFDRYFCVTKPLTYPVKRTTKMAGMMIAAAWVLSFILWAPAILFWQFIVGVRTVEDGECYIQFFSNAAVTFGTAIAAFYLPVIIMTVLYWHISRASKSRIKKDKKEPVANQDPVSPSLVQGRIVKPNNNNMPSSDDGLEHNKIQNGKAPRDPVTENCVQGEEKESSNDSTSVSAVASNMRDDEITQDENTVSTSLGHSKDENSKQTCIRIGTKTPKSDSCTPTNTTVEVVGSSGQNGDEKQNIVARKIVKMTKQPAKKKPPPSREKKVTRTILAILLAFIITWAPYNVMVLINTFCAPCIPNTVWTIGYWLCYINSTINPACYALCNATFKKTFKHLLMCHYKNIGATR

[2] = biological target: G_(q/11) G-proteins (Chinese hamster (endogenous in CHO))
[3] = biological target: G_(s/olf) G-proteins (Chinese hamster (endogenous in CHO))
[4] = biological target: Gi/o G-proteins (Chinese hamster (endogenous in CHO))
[5] = biological target: G-proteins (Chinese hamster (endogenous in CHO))

Row | Compound | radioligand binding, CHO membranes [1] | EMAX of carbachol-stimulated [35S]GTPγS binding to G (q/11) G-proteins via the receptor (scintillation proximity assay, CHO membranes, carbachol 0.1 µM to 1 mM) (fold increase of basal binding) [2] | EMAX of carbachol-stimulated [35S]GTPγS binding to G (s/olf) G-proteins via the receptor (scintillation proximity assay, CHO membranes, carbachol 0.1 µM to 1 mM) (fold increase of basal binding) [3] | EMAX of carbachol-stimulated [35S]GTPγS binding to Gi/o G-proteins via the receptor (scintillation proximity assay, CHO membranes, carbachol 0.1 µM to 1 mM) (fold increase of basal binding) [4] | fraction of low-affinity sites (f low) for carbachol in competition with 1 nM [3H]NMS, membranes of the newly prepared CHO cell line [5]
1 | C[N+]1(C)[C@@H]2C[C@@H](OC(=O)[C@H](CO)c3ccccc3)C[C@H]1[C@@H]1O[C@@H]12 [[3H]-N-methylscopolamine] | N-methylscopolamine binding was measured directly in saturation experiments using six concentrations |  |  |  | 
2 | human M2 muscarinic acetylcholine receptor (from UniProt P08172 1-466) |  | 1.63 | 1.93 | 3.44 | 
3 | human M1 muscarinic acetylcholine receptor (from UniProt P11229 1-460) |  | 3.9 | 1.92 | 2.01 | 
4 | human M3 muscarinic acetylcholine receptor (from UniProt P20309 1-590) |  | 3.31 | 2.16 | 2.16 | 
5 | human M4 muscarinic acetylcholine receptor (from UniProt P08173 1-479) |  | 1.59 | 2.18 | 3.15 | 
6 | wild-type human M1 muscarinic receptor (newly prepared CHO cell line) (from UniProt P11229 1-460) |  |  |  |  | 72 percent
